Results on one substance are retold here after patent US20240293509A1, “METHODS OF TREATING INFLAMMATORY BOWEL DISEASE” (UNIVERSITY OF PITTSBURGH - OF THE COMMONWEALTH SYSTEM OF …, priority 2021, published 2024).

The data set can be described thus: In vitro degradation of IL-2 in simulated gastric fluid. In kind it is in vitro ADME. To be noted: free IL-2, pH 2.0, 100 min, 37° C., ELISA. On the procedure: In silico and in vitro degradation of bioactive factors within the gastric environment. The in silico cytokine degradation was predicted using the Expasy PeptideCutter software package (E. Gasteiger et al., in The Proteomics Protocols Handbook, J. M. Walker, Ed. (Humana Press, Totowa, N J, 2005), pp. 571-607). In vitro degradation of IL-2 was measured in simulated gastric fluid (Ricca Chemical Company, Arlington, Texas) at pH 2.0. For the second set of the experimental conditions, pepsin (3.2 μg/L, Sigma) was also included. The samples were incubated for […] at 37° C. on a rocker and then neutralized before ELISA assay (R and D systems) for the soluble factors. For the MP containing factors, following treatment in the simulated gastric fluid the MPs were removed and washed multiple times with PBS supplemented with BSA and then incubated for 22 hours in PBS with 0.5% BSA. The released IL-2 was then quantitated with an ELISA excluding that which was released during the initial […] incubation in the simulated gastric fluid.

Regarding “IL-2: recombinant IL-2 (murine, R&D Systems); in silico prediction on SEQ ID NO: 9”, the “degradation in simulated gastric fluid containing pepsin” value is “complete degradation”.
